One test concerns the target monkey CD19-his protein (monkey). The test can be described thus: ELISA, monkey CD19 coated. The procedure: After incubation for 2 h at 37° C., the plate was washed 3 times with PBS. […] After incubation for 1 h at 37° C., the plate was washed 5 times with PBS. A TMB substrate was added at 50 μL/well. After incubation at room temperature for 10 min, a stop solution (1.0 N HCl) was added at 50 μL/well. The OD450 nm values were read on an ELISA microplate reader (Multimode Plate Reader, EnSight, purchased from Perkin Elmer). […] The negative control antibody mIgG1 was an antibody against hen egg lysozyme, anti-hel-mIgG1 (purchased from Biointron, Cat. No. B118301), and the data in the table were OD450 nm values.
IgG control was mIgG1, S003-NB151-89 was a clone that is selected from a library constructed by peripheral blood collected from Alpaca immunized by human CD19-His and can bind to a monkey CD19-His protein, and was used as a positive control, and the data in the table were OD450 nm values.
A general note: ELISA stands for enzyme-linked immunosorbent assay.

Test [1] deals with T1, monkey CD19, full length, on HEK293T cells (monkey, UniProt P15391 20-556 (human entry)).
T1 construct: The entry holds the signal peptide; also called HEK293T-monkey CD19
T1 chain: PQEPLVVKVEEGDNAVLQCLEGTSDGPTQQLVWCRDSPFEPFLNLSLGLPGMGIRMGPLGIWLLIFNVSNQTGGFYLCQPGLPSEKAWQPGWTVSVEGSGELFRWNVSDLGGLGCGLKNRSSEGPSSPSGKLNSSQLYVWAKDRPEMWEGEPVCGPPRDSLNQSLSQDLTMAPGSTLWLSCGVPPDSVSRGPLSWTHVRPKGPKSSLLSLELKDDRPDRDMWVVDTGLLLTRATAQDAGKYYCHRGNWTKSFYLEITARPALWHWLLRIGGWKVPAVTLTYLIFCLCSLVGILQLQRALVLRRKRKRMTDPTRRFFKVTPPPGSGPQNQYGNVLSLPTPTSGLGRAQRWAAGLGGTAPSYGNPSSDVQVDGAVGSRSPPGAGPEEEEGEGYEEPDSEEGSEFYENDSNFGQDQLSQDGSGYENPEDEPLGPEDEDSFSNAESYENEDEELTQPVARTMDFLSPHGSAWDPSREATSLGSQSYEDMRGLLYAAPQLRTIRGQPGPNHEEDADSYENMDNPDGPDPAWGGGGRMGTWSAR
The test can be described thus: FACS on HEK293T-monkey CD19 cells. The procedure: (§1) For suspension cells Raji, the medium supernatant was discarded by direct centrifugation, and the cell pellet was washed twice with PBS. After cell counting of the cells obtained in the last step, the cell pellet was resuspended to 2×10⁶ cells/mL with a blocking solution [PBS+2% (w/w) BSA] and added into a 96-well FACS reaction plate at 50 μL/well. […] After the plate was centrifuged and washed 5 times with a PBS buffer, the results were assayed and analyzed by FACS (FACS Canto™, purchased from BD Biosciences). Data analysis was performed by software (CellQuest) to obtain the mean fluorescence intensity (MFI) of the cells. Then, analysis was performed by software (GraphPad Prism8), data were fitted, and EC₅₀ values were calculated.
(§2) HEK293T-monkey CD19 cells were subjected to the FACS assay and data analysis according to the method described in Example 4.2.

For a further test, the target named is T2, human CD19-his protein (human, UniProt P15391 20-291).
T2 construct: also called recombinant human CD19-His; human CD19 protein; not shown: His tag
T2 sequence (looked up): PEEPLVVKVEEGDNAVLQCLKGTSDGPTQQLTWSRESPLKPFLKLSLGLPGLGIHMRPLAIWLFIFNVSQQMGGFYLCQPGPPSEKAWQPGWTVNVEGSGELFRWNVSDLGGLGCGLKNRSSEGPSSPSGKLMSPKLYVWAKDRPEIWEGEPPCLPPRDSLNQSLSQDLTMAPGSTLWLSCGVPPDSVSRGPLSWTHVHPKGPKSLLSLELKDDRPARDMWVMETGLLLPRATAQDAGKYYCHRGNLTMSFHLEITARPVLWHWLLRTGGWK
Kind of test: ELISA, human CD19-his coated at 4 ug/mL. The procedure: A human CD19-his protein (purchased from ACROBiosystems, Cat. No. CD9-H52H2) was diluted with PBS to make a final concentration of 4 μg/mL, and then added into a 96-well ELISA plate at 100 μL/well. The plate was sealed with a plastic film and incubated at 4° C. overnight, wash twice with PBS the next day, and blocked at room temperature for 2 h by adding a blocking solution [PBS +2% (w/w) BSA]. […] After incubation for 2 h at 37° C., the plate was washed 3 times with PBS. […] After incubation for 1 h at 37° C., the plate was washed 5 times with PBS. A TMB substrate was added at 50 μL/well. After incubation at room temperature for 10 min, a stop solution (1.0 N HCl) was added at 50 μL/well. The OD450 nm values were read on an ELISA microplate reader (Multimode Plate Reader, EnSight, purchased from Perkin Elmer). […] The negative control antibody mIgG1 was an antibody against hen egg lysozyme, anti-hel-mIgG1 (purchased from Biointron, Cat. No. B118301), and the data in the table were OD450 nm values.

Test [2] has as its target T3, cynomolgus monkey CD19 on peripheral blood B cells (cynomolgus monkey (Macaca fascicularis), UniProt A0A2K5W8L9 20-557).
T3 construct: whole, on cells; also called cynomolgus monkey B cells
T3 sequence: T1 chain
Kind of test: FACS on cynomolgus monkey PBMC, gated on CD20-positive B cells. The procedure: Monkey peripheral blood mononuclear cells were extracted from fresh cynomolgus monkey peripheral blood (purchased from Shanghai Medicilon Inc.) according to Ficoll-Paque Plus (purchased from GE Healthcare, Cat. No. 171440-02). […] The cells were incubated at room temperature for 1 h. […] The cells were incubated at room temperature for 30 min in the dark, washed 5 times, gently resuspended in PBS, and assayed and analyzed by FACS (FACS Canto™, purchased from BD Biosciences), in which CD20 was used as a marker for B cells.

Test [3] concerns the target T1, monkey CD19, full length, on HEK293T …. The test can be described thus: FACS titration on HEK293T-monkey CD19 cells. The procedure:
as §1, §2

Residue numbers refer to the chain shown, from its start.

This is an account of results in patent US20230406922A1 (SIMCERE ZAIMING PHARMACEUTICAL, published 2023).

B1: FMC63.26-mIgG1 (antibody, V domains shown)
VH: EVTLKESGPVLVKPTETLTLTCTVSGFSLPDYGVSWIRQPPGKALEWLAVIWGSETTYYNSALKSRLTISKDTSKSQVVLTMTNMDPVDTATYYCAKHYYYGGSYAMDYWGQGTTVTVSS
VL: DIQMTQSPSSLSASVGDRVTITCRASQDISKYLNWYQQKPGGAVKLLIYHTSRLHSGVPSRFSGSGSGTDYTLTISSLQPEDFATYYCQQGNTLPYTFGGGTKVEIKR
notes: Humanized FMC63; also called FMC63-L2H6
For the molecule B1, in the test with monkey CD19-his protein, the “OD450 at 0.0001 nM” value was 0.05 OD450, the “OD450 at 0.001 nM” value was 0.05 OD450, the “OD450 at 0.01 nM” value amounted to 0.05 OD450 and the “OD450 at 0.10 nM” value amounted to 0.05 OD450. In the test with monkey CD19-his protein, the “OD450 at 1.00 nM” value was determined as 0.05 OD450, the “OD450 at 10.00 nM” value stood at 0.06 OD450 and the “OD450 at 100.00 nM” value was determined as 0.1 OD450. Besides, in test [1], the EC50 was determined as 20.3 nM and the “maximum mean fluorescence intensity” value is 38500 MFI. Further, in the test with human CD19-his protein, the “OD450 at 0.0001 nM” value was 0.11 OD450, the “OD450 at 0.001 nM” value was 0.15 OD450, the “OD450 at 0.01 nM” value is 0.38 OD450 and the “OD450 at 0.10 nM” value came out at 1.54 OD450. In the test with human CD19-his protein, the “OD450 at 1.00 nM” value amounted to 2.37 OD450, the “OD450 at 10.00 nM” value is 2.38 OD450 and the “OD450 at 100.00 nM” value came to 2.59 OD450. Also, in test [2], the “proportion of positive cells to B cells (%) at 1 nM” value turned out to be 3%, the “proportion of positive cells to B cells (%) at 10 nM” value was 6% and the “proportion of positive cells to B cells (%) at 100 nM” value stood at 39%.

B2: FMC63.25-mIgG1 (antibody, V domains shown)
VH: B1 VH with P30S
VL: B1 VL
notes: Humanized FMC63; also called FMC63-L2H5
B2: in the test with monkey CD19-his protein, the “OD450 at 0.0001 nM” value was found to be 0.1 OD450, the “OD450 at 0.001 nM” value was 0.1 OD450, the “OD450 at 0.01 nM” value turned out to be 0.09 OD450 and the “OD450 at 0.10 nM” value stood at 0.08 OD450. In the test with monkey CD19-his protein, the “OD450 at 1.00 nM” value was found to be 0.08 OD450, the “OD450 at 10.00 nM” value was found to be 0.1 OD450 and the “OD450 at 100.00 nM” value stood at 0.12 OD450. In addition, in test [1], the EC50 came to 1.52 nM and the “maximum mean fluorescence intensity” value was 34700 MFI. For the same molecule, in the test with human CD19-his protein, the “OD450 at 0.0001 nM” value was 0.13 OD450, the “OD450 at 0.001 nM” value was determined as 0.17 OD450, the “OD450 at 0.01 nM” value came to 0.51 OD450 and the “OD450 at 0.10 nM” value worked out at 1.71 OD450. Besides, in the test with human CD19-his protein, the “OD450 at 1.00 nM” value was determined as 2.44 OD450, the “OD450 at 10.00 nM” value was determined as 2.46 OD450 and the “OD450 at 100.00 nM” value was 2.75 OD450. For the same molecule, in test [3], the “EC50 (read off the curve)” value was approximately 0.2 nM. In test [2], the “proportion of positive cells to B cells (%) at 1 nM” value came out at 4%, the “proportion of positive cells to B cells (%) at 10 nM” value was found to be 10% and the “proportion of positive cells to B cells (%) at 100 nM” value worked out at 60%.

B3: FMC63.27-mIgG1 (antibody, V domains shown)
VH: B1 VH with F27V, T73N
VL: B1 VL
notes: Humanized FMC63; also called FMC63-L2H7
On to B3, for which, in the test with monkey CD19-his protein, the “OD450 at 0.0001 nM” value was 0.05 OD450, the “OD450 at 0.001 nM” value was 0.05 OD450, the “OD450 at 0.01 nM” value came out at 0.05 OD450 and the “OD450 at 0.10 nM” value is 0.05 OD450. In the test with monkey CD19-his protein, the “OD450 at 1.00 nM” value came out at 0.05 OD450, the “OD450 at 10.00 nM” value is 0.05 OD450 and the “OD450 at 100.00 nM” value is 0.1 OD450. Further, in the test with human CD19-his protein, the “OD450 at 0.0001 nM” value came out at 0.11 OD450, the “OD450 at 0.001 nM” value was found to be 0.16 OD450, the “OD450 at 0.01 nM” value turned out to be 0.39 OD450 and the “OD450 at 0.10 nM” value was 1.52 OD450. Besides, in the test with human CD19-his protein, the “OD450 at 1.00 nM” value was determined as 2.29 OD450, the “OD450 at 10.00 nM” value stood at 2.32 OD450 and the “OD450 at 100.00 nM” value amounted to 2.64 OD450.

For orientation: EC50 means the concentration at which the effect is half-maximal. As usually defined, the EC50 (read off the curve) is the concentration giving half of the maximal effect.
